# Results taken from patent US20250327097A1, “ORGANISMS PRODUCING LESS CROTONIC ACID” (Global Bioenergies, priority 2021, published 2025).
# Test system: 3-methylcrotonic acid
# Format: biochemical, Yersinia frederiksenii
# Parameters: key: “+” representing a low increase in activity; “++++” representing a high increase in activity
row,Molecule,Activity relative to WT
1,N285M-N287T-S322T-N388M-K394R-C430N-L432F-L434W-S436N-dA463-S465V (protein) MFLKSLREQINLLKRQGDLRIINRPVDSYLEAAAIIRRSTETKAPVPLMTNIKGYPGCSIVGGLAALSSNPEYPLSRVAMSLGLSTTASAQSIVQYLIDGLKKTPYLPVEIDSNSAPCKQNILRGEDASLAHFPIPQVHQHDGNRYVNTWGVFIVESPDGQWCNWSIQRVQYLNDRQMIALVFPSQHISDIWEEWVKIGKPMPYALVQGCEPIVPYIAGLPLLERNVNEAEYIGALYGKGIEVVKCETHDLRVPASSEVVIEGYFAITREGVEGPFGEFAGYIPMETSLQPILSITAISWQDDPIWPVVAEGKPVDEYHTCTGIGDAAAIQNVLLTANLPVSFVWVPLYSACHLMIVSINRHWRQTHPDLTSEQLTKKVGDVIHQTRMSIKLPRIVVLDDDVDPADTESLLWALATRIHPERKRYFYESNIFPWLNCYSEEERHNRKGKRVIIDALLPENHGAIVSFDYAYPDDIKQRVLMHWETDFSHD,++++
2,P284E-N287Q-L289R-S322T-N388M-K394R-C430N-L432F-L434W-S436N-dA463 (protein) MFLKSLREQINLLKRQGDLRIINRPVDSYLEAAAIIRRSTETKAPVPLMTNIKGYPGCSIVGGLAALSSNPEYPLSRVAMSLGLSTTASAQSIVQYLIDGLKKTPYLPVEIDSNSAPCKQNILRGEDASLAHFPIPQVHQHDGNRYVNTWGVFIVESPDGQWCNWSIQRVQYLNDRQMIALVFPSQHISDIWEEWVKIGKPMPYALVQGCEPIVPYIAGLPLLERNVNEAEYIGALYGKGIEVVKCETHDLRVPASSEVVIEGYFAITREGVEGPFGEFAGYIENEQSRQPILSITAISWQDDPIWPVVAEGKPVDEYHTCTGIGDAAAIQNVLLTANLPVSFVWVPLYSACHLMIVSINRHWRQTHPDLTSEQLTKKVGDVIHQTRMSIKLPRIVVLDDDVDPADTESLLWALATRIHPERKRYFYESNIFPWLNCYSEEERHNRKGKRVIIDALLPENHGAISSFDYAYPDDIKQRVLMHWETDFSHD,++++
3,P284E-N287Q-S322T-N388M-K394R-R422H-C430N-L432F-L434W-S436N-dA463 (protein) MFLKSLREQINLLKRQGDLRIINRPVDSYLEAAAIIRRSTETKAPVPLMTNIKGYPGCSIVGGLAALSSNPEYPLSRVAMSLGLSTTASAQSIVQYLIDGLKKTPYLPVEIDSNSAPCKQNILRGEDASLAHFPIPQVHQHDGNRYVNTWGVFIVESPDGQWCNWSIQRVQYLNDRQMIALVFPSQHISDIWEEWVKIGKPMPYALVQGCEPIVPYIAGLPLLERNVNEAEYIGALYGKGIEVVKCETHDLRVPASSEVVIEGYFAITREGVEGPFGEFAGYIENEQSLQPILSITAISWQDDPIWPVVAEGKPVDEYHTCTGIGDAAAIQNVLLTANLPVSFVWVPLYSACHLMIVSINRHWRQTHPDLTSEQLTKKVGDVIHQTRMSIKLPRIVVLDDDVDPADTESLLWALATRIHPEHKRYFYESNIFPWLNCYSEEERHNRKGKRVIIDALLPENHGAISSFDYAYPDDIKQRVLMHWETDFSHD,++++
4,I283C-P284E-N287Q-S322T-N388M-K394R-C430N-L432F-L434W-S436N-dA463 (protein) MFLKSLREQINLLKRQGDLRIINRPVDSYLEAAAIIRRSTETKAPVPLMTNIKGYPGCSIVGGLAALSSNPEYPLSRVAMSLGLSTTASAQSIVQYLIDGLKKTPYLPVEIDSNSAPCKQNILRGEDASLAHFPIPQVHQHDGNRYVNTWGVFIVESPDGQWCNWSIQRVQYLNDRQMIALVFPSQHISDIWEEWVKIGKPMPYALVQGCEPIVPYIAGLPLLERNVNEAEYIGALYGKGIEVVKCETHDLRVPASSEVVIEGYFAITREGVEGPFGEFAGYCENEQSLQPILSITAISWQDDPIWPVVAEGKPVDEYHTCTGIGDAAAIQNVLLTANLPVSFVWVPLYSACHLMIVSINRHWRQTHPDLTSEQLTKKVGDVIHQTRMSIKLPRIVVLDDDVDPADTESLLWALATRIHPERKRYFYESNIFPWLNCYSEEERHNRKGKRVIIDALLPENHGAISSFDYAYPDDIKQRVLMHWETDFSHD,++++
5,P284E-N287Q-L289H-S322T-N388M-K394R-C430N-L432F-L434W-S436N-dA463 (protein) MFLKSLREQINLLKRQGDLRIINRPVDSYLEAAAIIRRSTETKAPVPLMTNIKGYPGCSIVGGLAALSSNPEYPLSRVAMSLGLSTTASAQSIVQYLIDGLKKTPYLPVEIDSNSAPCKQNILRGEDASLAHFPIPQVHQHDGNRYVNTWGVFIVESPDGQWCNWSIQRVQYLNDRQMIALVFPSQHISDIWEEWVKIGKPMPYALVQGCEPIVPYIAGLPLLERNVNEAEYIGALYGKGIEVVKCETHDLRVPASSEVVIEGYFAITREGVEGPFGEFAGYIENEQSHQPILSITAISWQDDPIWPVVAEGKPVDEYHTCTGIGDAAAIQNVLLTANLPVSFVWVPLYSACHLMIVSINRHWRQTHPDLTSEQLTKKVGDVIHQTRMSIKLPRIVVLDDDVDPADTESLLWALATRIHPERKRYFYESNIFPWLNCYSEEERHNRKGKRVIIDALLPENHGAISSFDYAYPDDIKQRVLMHWETDFSHD,++++
6,P284D-N287Q-S322T-N388M-K394R-C430N-L432F-L434W-S436N-dA463 (protein) MFLKSLREQINLLKRQGDLRIINRPVDSYLEAAAIIRRSTETKAPVPLMTNIKGYPGCSIVGGLAALSSNPEYPLSRVAMSLGLSTTASAQSIVQYLIDGLKKTPYLPVEIDSNSAPCKQNILRGEDASLAHFPIPQVHQHDGNRYVNTWGVFIVESPDGQWCNWSIQRVQYLNDRQMIALVFPSQHISDIWEEWVKIGKPMPYALVQGCEPIVPYIAGLPLLERNVNEAEYIGALYGKGIEVVKCETHDLRVPASSEVVIEGYFAITREGVEGPFGEFAGYIDNEQSLQPILSITAISWQDDPIWPVVAEGKPVDEYHTCTGIGDAAAIQNVLLTANLPVSFVWVPLYSACHLMIVSINRHWRQTHPDLTSEQLTKKVGDVIHQTRMSIKLPRIVVLDDDVDPADTESLLWALATRIHPERKRYFYESNIFPWLNCYSEEERHNRKGKRVIIDALLPENHGAISSFDYAYPDDIKQRVLMHWETDFSHD,++++
7,S185T-N388M-C430S-L432F-L434W-S436N (protein) MFLKSLREQINLLKRQGDLRIINRPVDSYLEAAAIIRRSTETKAPVPLMTNIKGYPGCSIVGGLAALSSNPEYPLSRVAMSLGLSTTASAQSIVQYLIDGLKKTPYLPVEIDSNSAPCKQNILRGEDASLAHFPIPQVHQHDGNRYVNTWGVFIVESPDGQWCNWSIQRVQYLNDRQMIALVFPTQHISDIWEEWVKIGKPMPYALVQGCEPIVPYIAGLPLLERNVNEAEYIGALYGKGIEVVKCETHDLRVPASSEVVIEGYFAITREGVEGPFGEFAGYIPNENSLQPILSITAISWQDDPIWPVVAEGKPVDEYHTCSGIGDAAAIQNVLLTANLPVSFVWVPLYSACHLMIVSINRHWRQTHPDLTSEQLTKKVGDVIHQTRMSIKLPKIVVLDDDVDPADTESLLWALATRIHPERKRYFYESSIFPWLNCYSEEERHNRKGKRVIIDALLPENHGAISSFDYAYPDDIKQRVLMHWETDFSHD,+
8,P284E-N287Q-S322T-N388M-K394R-C430N-L432F-L434W-S436N-dA463-A470T (protein) MFLKSLREQINLLKRQGDLRIINRPVDSYLEAAAIIRRSTETKAPVPLMTNIKGYPGCSIVGGLAALSSNPEYPLSRVAMSLGLSTTASAQSIVQYLIDGLKKTPYLPVEIDSNSAPCKQNILRGEDASLAHFPIPQVHQHDGNRYVNTWGVFIVESPDGQWCNWSIQRVQYLNDRQMIALVFPSQHISDIWEEWVKIGKPMPYALVQGCEPIVPYIAGLPLLERNVNEAEYIGALYGKGIEVVKCETHDLRVPASSEVVIEGYFAITREGVEGPFGEFAGYIENEQSLQPILSITAISWQDDPIWPVVAEGKPVDEYHTCTGIGDAAAIQNVLLTANLPVSFVWVPLYSACHLMIVSINRHWRQTHPDLTSEQLTKKVGDVIHQTRMSIKLPRIVVLDDDVDPADTESLLWALATRIHPERKRYFYESNIFPWLNCYSEEERHNRKGKRVIIDALLPENHGAISSFDYTYPDDIKQRVLMHWETDFSHD,++++
9,I283L-P284E-N287Q-S322T-N388M-K394R-C430N-L432F-L434W-S436N-dA463 (protein) MFLKSLREQINLLKRQGDLRIINRPVDSYLEAAAIIRRSTETKAPVPLMTNIKGYPGCSIVGGLAALSSNPEYPLSRVAMSLGLSTTASAQSIVQYLIDGLKKTPYLPVEIDSNSAPCKQNILRGEDASLAHFPIPQVHQHDGNRYVNTWGVFIVESPDGQWCNWSIQRVQYLNDRQMIALVFPSQHISDIWEEWVKIGKPMPYALVQGCEPIVPYIAGLPLLERNVNEAEYIGALYGKGIEVVKCETHDLRVPASSEVVIEGYFAITREGVEGPFGEFAGYLENEQSLQPILSITAISWQDDPIWPVVAEGKPVDEYHTCTGIGDAAAIQNVLLTANLPVSFVWVPLYSACHLMIVSINRHWRQTHPDLTSEQLTKKVGDVIHQTRMSIKLPRIVVLDDDVDPADTESLLWALATRIHPERKRYFYESNIFPWLNCYSEEERHNRKGKRVIIDALLPENHGAISSFDYAYPDDIKQRVLMHWETDFSHD,++++
10,I283Q-P284E-N287Q-S322T-N388M-K394R-C430N-L432F-L434W-S436N-dA463 (protein) MFLKSLREQINLLKRQGDLRIINRPVDSYLEAAAIIRRSTETKAPVPLMTNIKGYPGCSIVGGLAALSSNPEYPLSRVAMSLGLSTTASAQSIVQYLIDGLKKTPYLPVEIDSNSAPCKQNILRGEDASLAHFPIPQVHQHDGNRYVNTWGVFIVESPDGQWCNWSIQRVQYLNDRQMIALVFPSQHISDIWEEWVKIGKPMPYALVQGCEPIVPYIAGLPLLERNVNEAEYIGALYGKGIEVVKCETHDLRVPASSEVVIEGYFAITREGVEGPFGEFAGYQENEQSLQPILSITAISWQDDPIWPVVAEGKPVDEYHTCTGIGDAAAIQNVLLTANLPVSFVWVPLYSACHLMIVSINRHWRQTHPDLTSEQLTKKVGDVIHQTRMSIKLPRIVVLDDDVDPADTESLLWALATRIHPERKRYFYESNIFPWLNCYSEEERHNRKGKRVIIDALLPENHGAISSFDYAYPDDIKQRVLMHWETDFSHD,++++
